What follows are sequences tested on Escherichia coli TOP10 (assay: shrunken log2 fold change of peptide-encoding DNA abundance (4.5 h post-induction vs induction); higher = less antimicrobial activity (less host growth inhibition)). Conditions: time post-induction: 4.5 h; library: site-saturation at positions 5, 18, 19, 20.
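Further: peptides expressed intracellularly from a pBAD plasmid library in pooled LB shake-flask culture, induced with 0.3% L-arabinose, DNA abundance read by NGS, three biological replicates, DESeq2 with apeglm shrinkage.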

Row | Sequence | shrunken log2 fold change
1 | RRIRWRPPRLPRPRPRPQWEPRP | -0.0152
2 | RRIRCRPPRLPRPRPRPQQLPRP | -0.054
3 | RRIRKRPPRLPRPRPRPHLWPRP | 0.709
4 | RRIRLRPPRLPRPRPRPQNLPRP | -0.149
5 | RRIRVRPPRLPRPRPRPMAKPRP | 0.0605
6 | RRIRQRPPRLPRPRPRPRREPRP | 0.08
7 | RRIRERPPRLPRPRPRPNGPPRP | -0.0578
8 | RRIRPRPPRLPRPRPRPYRVPRP | 0.101
9 | RRIRMRPPRLPRPRPRPLTHPRP | 0.0406
10 | RRIRARPPRLPRPRPRPWPKPRP | 0.508
11 | RRIRSRPPRLPRPRPRPALPPRP | 0.26
12 | RRIRVRPPRLPRPRPRPWREPRP | 0.0932
13 | RRIRSRPPRLPRPRPRPGGWPRP | 0.705
14 | RRIRRRPPRLPRPRPRPFLPPRP | 0.111
15 | RRIRERPPRLPRPRPRPEQKPRP | -0.017
16 | RRIRIRPPRLPRPRPRPQYTPRP | -1.18
17 | RRIRSRPPRLPRPRPRPPDCPRP | -0.046
18 | RRIRWRPPRLPRPRPRPWYAPRP | -0.746
19 | RRIRFRPPRLPRPRPRPEQTPRP | -0.0498
20 | RRIRYRPPRLPRPRPRPDEVPRP | 0.000691
21 | RRIRTRPPRLPRPRPRPPNQPRP | 0.185
22 | RRIRERPPRLPRPRPRPHRWPRP | 0.0978
23 | RRIRQRPPRLPRPRPRPNILPRP | -0.233
24 | RRIRPRPPRLPRPRPRPQNQPRP | -0.407
25 | RRIRTRPPRLPRPRPRPSGHPRP | -0.17

Row | Sequence | shrunken log2 fold change
26 | RRIRTRPPRLPRPRPRPCANPRP | -0.148
27 | RRIRFRPPRLPRPRPRPSEGPRP | 0.0716
28 | RRIRMRPPRLPRPRPRPSQEPRP | 0.226
29 | RRIRFRPPRLPRPRPRPITNPRP | -0.352
30 | RRIRKRPPRLPRPRPRPDIFPRP | -0.178
31 | RRIRERPPRLPRPRPRPGGPPRP | -0.00661
32 | RRIRLRPPRLPRPRPRPELMPRP | 0.0527
33 | RRIRNRPPRLPRPRPRPTKLPRP | 0.0886
34 | RRIRCRPPRLPRPRPRPEMKPRP | 0.0473
35 | RRIRARPPRLPRPRPRPAFIPRP | 0.142
36 | RRIRSRPPRLPRPRPRPCLWPRP | 0.0729
37 | RRIRFRPPRLPRPRPRPQNWPRP | -0.148
38 | RRIRWRPPRLPRPRPRPDVLPRP | -0.0113
39 | RRIRNRPPRLPRPRPRPPPGPRP | 0.863
40 | RRIRARPPRLPRPRPRPFHLPRP | -0.36
41 | RRIRFRPPRLPRPRPRPEHDPRP | -0.446
42 | RRIRPRPPRLPRPRPRPRVQPRP | 0.398
43 | RRIRFRPPRLPRPRPRPGVRPRP | -0.118
44 | RRIRLRPPRLPRPRPRPLSDPRP | 0.0376
45 | RRIRSRPPRLPRPRPRPDNHPRP | -0.307
46 | RRIRVRPPRLPRPRPRPAWDPRP | 0.258
47 | RRIRLRPPRLPRPRPRPWNDPRP | 0.041
48 | RRIRNRPPRLPRPRPRPWFPPRP | -0.223
49 | RRIRARPPRLPRPRPRPQNEPRP | -0.12
50 | RRIRGRPPRLPRPRPRPNRFPRP | 0.282

Row | Sequence | shrunken log2 fold change
51 | RRIRSRPPRLPRPRPRPIDKPRP | -0.156
52 | RRIRYRPPRLPRPRPRPWGAPRP | -0.315
53 | RRIRRRPPRLPRPRPRPDIEPRP | 0.172
54 | RRIRFRPPRLPRPRPRPMCFPRP | -0.256
55 | RRIRWRPPRLPRPRPRPYVPPRP | -0.837
56 | RRIRKRPPRLPRPRPRPHYHPRP | -0.145
57 | RRIRDRPPRLPRPRPRPKWKPRP | -0.00871
58 | RRIRVRPPRLPRPRPRPDAVPRP | 0.141
59 | RRIRWRPPRLPRPRPRPEHLPRP | -0.138
60 | RRIRLRPPRLPRPRPRPMQNPRP | 0.141
61 | RRIRDRPPRLPRPRPRPQVMPRP | 0.0256
62 | RRIRRRPPRLPRPRPRPNSAPRP | 0.282
63 | RRIRRRPPRLPRPRPRPYMRPRP | 0.044
64 | RRIRCRPPRLPRPRPRPCLQPRP | -0.129
65 | RRIRRRPPRLPRPRPRPEDPPRP | 0.192
66 | RRIRQRPPRLPRPRPRPQTSPRP | 0.219
67 | RRIRFRPPRLPRPRPRPCTCPRP | -0.187
68 | RRIRIRPPRLPRPRPRPNYSPRP | -0.937
69 | RRIRVRPPRLPRPRPRPTHLPRP | 0.37
70 | RRIRRRPPRLPRPRPRPREQPRP | 0.803
71 | RRIRLRPPRLPRPRPRPSSHPRP | -0.196
72 | RRIRFRPPRLPRPRPRPLQVPRP | -0.135
73 | RRIRDRPPRLPRPRPRPWFPPRP | -0.234
74 | RRIRCRPPRLPRPRPRPCSNPRP | -0.274
75 | RRIRGRPPRLPRPRPRPGKIPRP | 1.93

From the supplement of paper PMC9112550, “Optimization of the antimicrobial peptide Bac7 by deep mutational scanning” (BMC Biology, 2022)
